Test results from article doi:10.1101/2024.12.18.629111 (bioRxiv, 2024).
Residue numbers refer to the chain shown, from its start.

T1: FITC-labeled Dcp2-UBD2 peptide (aa 694-718) (S. cerevisiae, UniProt P53550 694-718, FITC on the N-terminus)
T1 peptide (looked up): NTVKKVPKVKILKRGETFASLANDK

T2: FITC-labeled Dcp2-UBD1 peptide (aa 456-479) (S. cerevisiae, UniProt P53550 456-479, FITC on the N-terminus)
T2 peptide (looked up): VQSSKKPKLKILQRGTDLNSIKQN

T3: CBP-Upf1-CH-HD (S. cerevisiae, UniProt P30771 54-851)
T3 sequence (looked up): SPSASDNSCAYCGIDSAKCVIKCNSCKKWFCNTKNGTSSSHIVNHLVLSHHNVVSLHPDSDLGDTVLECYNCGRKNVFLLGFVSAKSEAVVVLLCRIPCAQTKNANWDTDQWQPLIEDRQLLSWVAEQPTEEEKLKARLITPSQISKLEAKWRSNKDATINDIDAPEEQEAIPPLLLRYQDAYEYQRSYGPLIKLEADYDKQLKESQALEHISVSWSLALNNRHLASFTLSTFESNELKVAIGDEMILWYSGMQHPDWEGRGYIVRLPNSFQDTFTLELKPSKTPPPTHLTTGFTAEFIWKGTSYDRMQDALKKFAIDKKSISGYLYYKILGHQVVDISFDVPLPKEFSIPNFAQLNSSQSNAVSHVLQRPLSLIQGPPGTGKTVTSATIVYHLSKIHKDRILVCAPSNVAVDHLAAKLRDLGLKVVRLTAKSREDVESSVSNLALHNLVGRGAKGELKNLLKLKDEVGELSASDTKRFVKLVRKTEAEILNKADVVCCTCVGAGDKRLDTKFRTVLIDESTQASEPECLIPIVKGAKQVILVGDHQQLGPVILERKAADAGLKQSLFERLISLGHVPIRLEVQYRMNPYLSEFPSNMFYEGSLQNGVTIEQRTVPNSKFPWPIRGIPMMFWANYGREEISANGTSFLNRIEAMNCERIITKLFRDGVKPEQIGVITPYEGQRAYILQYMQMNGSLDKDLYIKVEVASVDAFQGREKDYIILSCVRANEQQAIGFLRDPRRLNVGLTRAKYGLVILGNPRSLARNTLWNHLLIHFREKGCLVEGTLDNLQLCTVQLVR

T4: CBP-Upf1-FL (S. cerevisiae, UniProt P30771 1-971)
T4 sequence (looked up): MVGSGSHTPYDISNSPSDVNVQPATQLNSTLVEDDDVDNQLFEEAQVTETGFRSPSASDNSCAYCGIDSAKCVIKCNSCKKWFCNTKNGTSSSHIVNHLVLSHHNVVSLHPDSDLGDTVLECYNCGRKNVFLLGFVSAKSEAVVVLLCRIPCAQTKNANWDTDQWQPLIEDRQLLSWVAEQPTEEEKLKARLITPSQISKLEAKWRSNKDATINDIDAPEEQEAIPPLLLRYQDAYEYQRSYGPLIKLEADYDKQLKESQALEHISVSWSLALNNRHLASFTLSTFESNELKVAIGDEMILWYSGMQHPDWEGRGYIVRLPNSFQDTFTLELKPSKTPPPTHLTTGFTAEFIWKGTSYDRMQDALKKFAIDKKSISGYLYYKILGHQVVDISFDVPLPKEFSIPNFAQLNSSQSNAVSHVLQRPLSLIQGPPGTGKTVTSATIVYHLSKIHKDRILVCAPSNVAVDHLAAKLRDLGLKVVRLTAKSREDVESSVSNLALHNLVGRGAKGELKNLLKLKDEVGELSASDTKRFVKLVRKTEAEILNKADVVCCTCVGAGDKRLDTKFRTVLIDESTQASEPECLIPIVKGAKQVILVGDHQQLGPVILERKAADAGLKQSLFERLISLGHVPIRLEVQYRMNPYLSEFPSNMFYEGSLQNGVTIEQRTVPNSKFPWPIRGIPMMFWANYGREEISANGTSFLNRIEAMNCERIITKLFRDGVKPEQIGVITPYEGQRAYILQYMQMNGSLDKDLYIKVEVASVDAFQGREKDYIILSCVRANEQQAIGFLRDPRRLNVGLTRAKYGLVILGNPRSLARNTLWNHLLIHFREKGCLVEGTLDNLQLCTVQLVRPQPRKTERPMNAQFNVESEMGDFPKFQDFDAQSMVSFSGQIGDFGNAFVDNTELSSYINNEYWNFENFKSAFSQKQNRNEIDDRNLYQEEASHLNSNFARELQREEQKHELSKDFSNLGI

T5: GST-Ebs1 (aa 1-591) (S. cerevisiae, UniProt Q03466 1-591)
T5 sequence (looked up): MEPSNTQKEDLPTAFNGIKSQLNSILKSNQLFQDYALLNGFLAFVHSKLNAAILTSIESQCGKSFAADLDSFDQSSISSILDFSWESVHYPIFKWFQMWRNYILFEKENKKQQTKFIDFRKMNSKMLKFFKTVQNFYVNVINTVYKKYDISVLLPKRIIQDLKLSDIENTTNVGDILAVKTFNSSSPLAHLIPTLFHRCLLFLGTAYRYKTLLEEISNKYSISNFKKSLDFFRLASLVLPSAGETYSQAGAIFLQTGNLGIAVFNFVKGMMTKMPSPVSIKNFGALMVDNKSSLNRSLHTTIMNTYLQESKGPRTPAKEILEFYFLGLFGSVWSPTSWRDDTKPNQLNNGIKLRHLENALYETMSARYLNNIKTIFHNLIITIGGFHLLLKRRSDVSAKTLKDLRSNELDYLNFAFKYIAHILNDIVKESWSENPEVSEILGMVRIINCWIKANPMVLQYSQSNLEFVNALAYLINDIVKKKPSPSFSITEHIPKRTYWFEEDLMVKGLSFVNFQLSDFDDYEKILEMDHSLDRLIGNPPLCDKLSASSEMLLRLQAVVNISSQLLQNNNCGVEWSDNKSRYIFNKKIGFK

T6: CBP-Upf1-CH-HD I693R (S. cerevisiae, UniProt P30771 54-851, I693R)
T6 sequence (looked up): T3 sequence (looked up) with I640R

B1: CBP-Upf1-CH-His (domain or fragment)
chain: SPSASDNSCAYCGIDSAKCVIKCNSCKKWFCNTKNGTSSSHIVNHLVLSHHNVVSLHPDSDLGDTVLECYNCGRKNVFLLGFVSAKSEAVVVLLCRIPCAQTKNANWDTDQWQPLIEDRQLLSWVAEQPTEEEKLKARLITPSQISKLEAKWRSNKDATINDIDAPE
B2: His-tagged Nmd4 (natural protein, S. cerevisiae, UniProt Q12129 1-218, looked up)
chain: MTQYNFIIDASAFEKGLGNIKRWCSDCTEAVTLNFYIPTFTLNELDFLQQRRKSFAARESLKFIDRLDDSKFANLKVFIEFPEVLDIILWSDVMEHNDSSGKINIAKLPKRLKNLLKSCIYKCYLEGNEGLHWFLISEDPQIREMAMQCNIPSCSIVDVDSILSKDMNDKSFRESEKFNNMMLKNGTKEESENGREIIRTNFNKTVYASRGTGELWSP
B3: CBP-Upf1-Ct (domain or fragment, S. cerevisiae, UniProt P30771 852-971, looked up)
chain: PQPRKTERPMNAQFNVESEMGDFPKFQDFDAQSMVSFSGQIGDFGNAFVDNTELSSYINNEYWNFENFKSAFSQKQNRNEIDDRNLYQEEASHLNSNFARELQREEQKHELSKDFSNLGI
B4: Upf2(933-1089)-His (domain or fragment, S. cerevisiae, UniProt P38798 933-1089, looked up)
chain: SDSDLEYGGDLDADRDIEMKRMYEEYERKLKDEEERKAEEELERQFQKMMQESIDARKSEKVVASKIPVISKPVSVQKPLLLKKSEEPSSSKETYEELSKPKKIAFTFLTKSGKKTQSRILQLPTDVKFVSDVLEEEEKLKTERNKIKKIVLKRSFD

What was measured:
[1] = target: T1, FITC-labeled Dcp2-UBD2 peptide (aa …); assay: fluorescence polarisation
[2] = target: T2, FITC-labeled Dcp2-UBD1 peptide (aa …); assay: fluorescence polarisation
[3] = target: the molecule itself; assay: SDS-PAGE band of the dimer
[4] = target: B4; assay: fluorescence polarisation
[5] = target: T3, CBP-Upf1-CH-HD; assay: native gel or EMSA
[6] = target: T4, CBP-Upf1-FL; assay: pull-down
[7] = target: T5, GST-Ebs1 (aa 1-591); assay: pull-down
[8] = target: T6, CBP-Upf1-CH-HD I693R; assay: pull-down

Binder: B1
- Kd [1]: 25.1 µM
- Kd [2]: 60.1 µM
- stoichiometry N [3]: 2
- Kd [4]: 430 nM

Binder: B2
- binding result [5]: binds
- binding result [6]: binds

Binder: B3
- binding result [7]: binds

Binder: B4
- binding result [8]: binds
